Test [1] concerns the target T1, huNectin4-His (human, UniProt Q96NY8 32-349).
T1 construct: Immobilized on the SPR chip; also called humanNectin4; human Nectin4; not shown: His tag
T1 sequence (looked up): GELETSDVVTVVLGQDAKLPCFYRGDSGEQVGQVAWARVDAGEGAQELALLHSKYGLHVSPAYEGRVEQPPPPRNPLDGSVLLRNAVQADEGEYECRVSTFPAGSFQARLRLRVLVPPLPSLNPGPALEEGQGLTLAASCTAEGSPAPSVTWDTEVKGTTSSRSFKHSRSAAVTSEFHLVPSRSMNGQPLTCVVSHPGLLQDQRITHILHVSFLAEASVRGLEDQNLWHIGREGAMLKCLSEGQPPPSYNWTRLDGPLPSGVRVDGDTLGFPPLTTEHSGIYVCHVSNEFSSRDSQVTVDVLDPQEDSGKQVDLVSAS
In words: SPR, huNectin4-His immobilized, pH 7.4; pH 7.4. The method, then:
(§1) Binding kinetics of anti-Nectin4 antibodies were measured by surface plasmon resonance using a SPR2/4 instrument (Sierra Sensors, Hamburg, Germany) and flat amine sensor chips. The SPR sensor contained four flow cells (FC1-FC4), each of which was addressed individually or in groups. huNectin4-His was immobilized in FC2, and cynoNectin4-mFc in FC4. No protein was immobilized in FC1 and FC3 which were used as control surfaces for FC2 and FC4, respectively.
(§2) All injections were done at a flow rate of 25 μL/min at 25° C. The sensor surface was activated with 1-ethyl-3-(3-dimethylaminopropyl)-carbodiimide (EDC) and N-hydroxysuccinimide (NHS) (200 mM/50 mM) for 480 seconds. HuNectin4-His (2 μg/mL in 10 mM NaAc, pH4.5) was injected for 480s and the surface was inactivated by injecting 1M ethanolamine-HCl for 480s. CynoNectin4 was immobilized using the same conditions as described for huNectin4-His, except that the cynoNectin4 was diluted into 10 mM NaAc buffer having pH 5.0. The control surface was activated and deactivated using the same conditions, but without injecting protein. PBST buffer (PBS pH 7.4 with 0.05% TWEEN20™) was used as running buffer for the surface preparation. The running solution was switched to PBST with 30 mM sodium bicarbonate with the pH adjusted as indicated in the figures before the analyte injections. The instrument was equilibrated with the running solution for one hour before the first analyte injection.
(§3) The off-rate was measured for 360s. The chip surface was regenerated after each cycle of interaction analysis by injecting 6 μL of 10 mM glycine (pH 2.0). Flow cells 1 and 3 without immobilized protein were used as control surfaces for reference subtraction.
(In general: SPR reads the build-up and loss of mass on a sensor chip optically.)

In test [2] the target is T1, huNectin4-His. The experiment in a line: SPR, huNectin4-His immobilized, pH 6.5; pH 6.5. How it is done:
as §1, §2, §3

Broadly, the Kd is the free concentration of one partner at which half of the binding sites on the other are occupied at equilibrium, for simple one-to-one binding. Lower therefore signals higher affinity. By koff is commonly meant a measure of how fast the partners let go of each other. Lower therefore signals a long-lived complex. In general, kon refers to the second-order rate constant of association.

B1: BAP-143-00-02 (antibody, V domains shown)
VH: EVQLVESGGGLVQPGGSLRLSCAASGFTFSSYNMNWVRQAPGKGLEWVSYISSSSSTIYYADSVKGRFTISRDNAKNSLSLQMNSLRDEDTAVYYCARAYYYGMDVWGQGTTVTVSS
VL: DIQMTQSPSSVSASVGDRVTITCRASQGISGWLAWYQQKPGKAPKFLIYAASTLQSGVPSRFSGSGSGTDFTLTISSLQPEDFATYYCQQANSEPPTFGGGTKVEIK
notes: Used as a conjugate with a linker payload (CAB ADC)
In the test with huNectin4-His [1], B1 gave a dissociation constant (Kd) of 9.76 nM, a koff of 0.00478 s⁻¹ and a kon of 490000 M⁻¹ s⁻¹. In the test with huNectin4-His [2], binding was characterised by a dissociation constant (Kd) of 9.31 nM, the koff was found to be 0.00574 s⁻¹ and the on-rate constant (kon) amounted to 617000 M⁻¹ s⁻¹.

These data come from patent US20230235054A1 (BIOATLA, published 2023).
